Measurements from patent US20170044234A1 (INSERM INSTITUT NATIONAL DE LA SANTE ET DE LA RECHERCHE …, published 2017).
Ends that are not written are not given here.

T1: GFP-fused CD95^1-210 (human, UniProt P25445 17-226)
T1 construct: also called CD95 construct devoid of DD; not shown: GFP of vector pEGFP-N1 (Clontech), fused C-terminally
T1 sequence: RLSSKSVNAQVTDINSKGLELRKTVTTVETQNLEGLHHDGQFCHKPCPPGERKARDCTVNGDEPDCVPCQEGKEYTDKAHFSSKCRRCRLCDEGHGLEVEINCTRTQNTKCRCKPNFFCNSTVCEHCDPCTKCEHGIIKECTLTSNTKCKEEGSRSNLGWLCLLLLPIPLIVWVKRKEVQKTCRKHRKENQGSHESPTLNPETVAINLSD

T2: Myc-tagged full-length human PLCγ1 (human, UniProt P19174 1-1290)
T2 construct: Transfected into HEK cells; also called wild type PLCγ1; phospholipase Cγ1; not shown: Myc tag of the pTriEx-4 construct
T2 sequence (looked up): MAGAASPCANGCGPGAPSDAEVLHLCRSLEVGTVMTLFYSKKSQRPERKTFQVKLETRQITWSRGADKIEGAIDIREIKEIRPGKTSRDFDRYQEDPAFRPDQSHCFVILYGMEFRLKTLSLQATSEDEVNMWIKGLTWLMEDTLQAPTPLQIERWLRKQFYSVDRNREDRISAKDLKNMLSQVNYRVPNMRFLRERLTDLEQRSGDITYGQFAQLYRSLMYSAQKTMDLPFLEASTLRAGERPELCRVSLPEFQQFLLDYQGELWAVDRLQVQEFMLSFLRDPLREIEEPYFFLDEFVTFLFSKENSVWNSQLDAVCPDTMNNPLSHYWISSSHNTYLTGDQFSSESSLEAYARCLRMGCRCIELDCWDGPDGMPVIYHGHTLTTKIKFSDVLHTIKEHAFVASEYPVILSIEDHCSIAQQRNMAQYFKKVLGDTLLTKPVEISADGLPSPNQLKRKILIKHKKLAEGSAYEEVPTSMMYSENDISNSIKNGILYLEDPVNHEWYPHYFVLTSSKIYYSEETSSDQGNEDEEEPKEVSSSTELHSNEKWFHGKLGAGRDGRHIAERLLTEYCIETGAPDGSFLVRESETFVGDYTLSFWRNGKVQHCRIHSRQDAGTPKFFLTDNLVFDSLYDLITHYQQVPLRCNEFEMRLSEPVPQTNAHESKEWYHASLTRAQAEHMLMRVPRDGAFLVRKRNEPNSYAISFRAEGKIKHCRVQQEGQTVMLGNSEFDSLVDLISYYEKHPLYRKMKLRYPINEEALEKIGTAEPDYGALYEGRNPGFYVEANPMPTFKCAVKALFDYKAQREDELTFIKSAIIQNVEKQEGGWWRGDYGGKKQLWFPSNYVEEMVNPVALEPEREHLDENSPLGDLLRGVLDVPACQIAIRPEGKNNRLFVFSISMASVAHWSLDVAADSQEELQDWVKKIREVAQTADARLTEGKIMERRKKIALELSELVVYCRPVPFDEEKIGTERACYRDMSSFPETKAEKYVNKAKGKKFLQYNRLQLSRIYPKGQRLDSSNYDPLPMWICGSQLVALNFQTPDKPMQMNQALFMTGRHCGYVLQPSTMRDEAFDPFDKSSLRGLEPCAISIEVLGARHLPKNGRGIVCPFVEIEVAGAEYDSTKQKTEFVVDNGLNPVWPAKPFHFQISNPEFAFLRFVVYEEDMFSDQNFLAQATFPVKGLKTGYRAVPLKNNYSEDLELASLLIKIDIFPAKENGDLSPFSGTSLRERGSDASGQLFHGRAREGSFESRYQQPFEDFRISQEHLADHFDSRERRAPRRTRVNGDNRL

B1: neutralizing anti-CD95L mAb (Nok1) (antibody, from another filing, V domains shown)
VH: VQLQESGPELVKPGASVKISCKASGYAFSSSWMNWVKQRPGKGLEWIGRIYPGDGDTNDNGKFKGKATLTADKSSSTAYMQLSSLTSEDSAVYFCARSYYYDGSPWFTYWGQGTTVTVSS
VL: DIQMTQSPSSLSASLGDRVTISCRASQDISNYLNWYQQKPDGTVKLLIYYTSRLHSGVPSRFSGSGSGTDYSLTISNLEPEDIATYFCQQYSEFPWTFGGGTKLEIKR
B2: adaptor protein FADD (other, UniProt Q13158 1-208, looked up)
chain: MDPFLVLLHSVSSSLSSSELTELKFLCLGRVGKRKLERVQSGLDLFSMLLEQNDLEPGHTELLRELLASLRRHDLLRRVDDFEAGAAAGAAPGEEDLCAAFNVICDNVGKDWRRLARQLKVSDTKIDSIEDRYPRNLTERVRESLRIWKNTEKENATVAHLVGALRSCQMNLVADLVQEVQQARDLQNRSGAMSPMSWNSDASTSEAS
notes: Detected with an anti-human FADD mAb (clone 1); also called Fas-associated death domain protein
B3: GFP-fused CD95^1-175 (receptor)
chain: RLSSKSVNAQVTDINSKGLELRKTVTTVETQNLEGLHHDGQFCHKPCPPGERKARDCTVNGDEPDCVPCQEGKEYTDKAHFSSKCRRCRLCDEGHGLEVEINCTRTQNTKCRCKPNFFCNSTVCEHCDPCTKCEHGIIKECTLTSNTKCKEEGSRSNLGWLCLLLLPIPLIVWVK
notes: also called CD95 devoid of the entire intracellular domain; not shown: GFP of vector pEGFP-N1 (Clontech), fused C-terminally
B4: CD95^(175-210)-mCherry (other)
chain: KRKEVQKTCRKHRKENQGSHESPTLNPETVAINLSD-mCherry
modifications: also: mCherry fused C-terminally, junction not given here
notes: Expressed in HEK cells together with PLCγ1; also called CID-mCherry; CID-mCHERRY; not shown: mCherry of vector pmCHERRY-N1, fused C-terminally

Tests used:
[1] = molecular target: serum CD95L of SLE patients (soluble, homotrimeric) (human) (UniProt P48023); assay: cell-based or functional assay
serum CD95L of SLE patients (soluble, homotrimeric) (human), sequence (P48023 130-281 limits assumed): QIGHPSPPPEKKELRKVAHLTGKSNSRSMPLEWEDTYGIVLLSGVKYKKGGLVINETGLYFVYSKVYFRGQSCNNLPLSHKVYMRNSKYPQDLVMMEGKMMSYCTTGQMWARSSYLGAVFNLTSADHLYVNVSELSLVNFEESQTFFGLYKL

GFP-fused CD95^1-210 = molecular target: T1, GFP-fused CD95^1-210; assay: co-immunoprecipitation with CD95 from transfected HEK cells stimulated with CD95L, immunoblot
adaptor protein FADD = molecular target: B2; assay: as above
[2] = molecular target: T2, Myc-tagged full-length human PLCγ1; assay: as above
[3] = molecular target: T2, Myc-tagged full-length human PLCγ1; assay: PLCγ1 immunoprecipitation from HEK cells co-transfected with PLCγ1 and CID-mCherry, immunoblot

Binder B1 has a T-cell transmigration induced by fractions 76-78 [1] of under 50%.

B2: no binding (GFP-fused CD95^1-210).

B3: no binding (adaptor protein FADD); no binding [2].

B4: binds [3].
